The test has as its target T1, wild-type AM0627^A21-E506 (Akkermansia muciniphila) (UniProt B2UPI7).
T1 sequence: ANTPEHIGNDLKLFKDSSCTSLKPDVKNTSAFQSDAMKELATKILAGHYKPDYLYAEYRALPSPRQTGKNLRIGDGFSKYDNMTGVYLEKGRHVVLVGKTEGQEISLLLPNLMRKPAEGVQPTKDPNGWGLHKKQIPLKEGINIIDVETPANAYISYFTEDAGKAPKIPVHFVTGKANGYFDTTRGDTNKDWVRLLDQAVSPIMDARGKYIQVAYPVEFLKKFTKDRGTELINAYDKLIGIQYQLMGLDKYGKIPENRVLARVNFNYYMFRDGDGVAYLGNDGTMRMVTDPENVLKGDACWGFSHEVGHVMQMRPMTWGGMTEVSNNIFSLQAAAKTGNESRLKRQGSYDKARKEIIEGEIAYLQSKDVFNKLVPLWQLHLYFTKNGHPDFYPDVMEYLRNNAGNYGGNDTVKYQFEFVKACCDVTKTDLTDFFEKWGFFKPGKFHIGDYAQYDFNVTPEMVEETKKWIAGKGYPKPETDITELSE

Where no end group is shown, it is not given here. The star is where a group is joined. αGalNAc = CC(=O)N[C@@H]1[C@@H](O)[C@@H](O)[C@@H](CO)O[C@@H]1*

With TEAQT(αGalNAc)T(αGalNAc)PPPA-NH2 [P2, bis-Tn glycopeptide], the cleavage of P2 (500 μM) by 0.4 μM enzyme at 37 °C, MALDI-TOF time course, printed for 5 and 15 min is 35%; the specific activity with P2 (500 μM), from the MALDI-TOF time course came to 1.2 U/mg.
